PMC4289617 (Journal of medicinal chemistry, 2010)
Read-outs that look alike come from different tables or passages of the source. Me3 = trimethyl-lysine, K(Me3)

Key:
[1] = biological target: T1, WDR5Δ23 (WD repeat domain 5, residues 24–334) (human, UniProt P61964 24-334); test: fluorescence polarisation
[2] = biological target: T1, WDR5Δ23 (WD repeat domain 5, residues …); test: fluorescence polarisation; remark: listed apart in the source

Row | Binder | IC50 [1] [µM] | Ki [1] [µM] | IC50 [2] [µM] | Ki [2] [µM]
1 | Ac-RAEVHLRKS-NH2 [Ac-9mer (Ac-10mer without Ala1)] | 29 | 6.3 |  | 
2 | H-ARTK(Me3)QTARKS-NH2 [H3-10mer-K4Me3 (H2N-ARTK(Me3)QTARKS-NH2)] |  |  | 73 | 15.6
3 | Ac-ARTKQTARKS-NH2 [Ac-H3-10mer (Ac-ARTKQTARKS-NH2)] |  |  |  | < 0.001
4 | Ac-ARAEVHLRKS-NH2 [Ac-10mer (Ac-ARAEVHLRKS-NH2)] |  | 0.003 |  | 
5 | Ac-ARAEVH-NH2 [Ac-6mer] |  | 0.09 |  | 
